Test results as given in the supplement of paper PMC7877785.
± gives the uncertainty stated by the source.

Test: self-splicing fitness, log relative to wild type (ln ratio); higher = more splicing; Tetrahymena group I intron in knt gene, E. coli kanamycin selection, DiMSum; sequences stand for … in CUCUCU…GGAGGGAAAAGUUAUCAGGCAUGCACCUGGUAGCUAGUCUUUAAACCAAUAGAUUGCAUCGGUUUAAAAGGCAAGACCGUCAAAUUGCGGGAAAGGGGUCAACAGCCGUUCAGUACCAAGUCUCAGGGGAAACUUUGAGAUGGCCUUGCAAAGGGUAUGGUAAUAAGCUGACGGACAUGGUCCUAACCACGCAGCCAAGUCCUAAGUCAACAGAUCUUCUGUUGAUAUGGAUGCAGUUCACAGACUAAAUGUCGGUCGGGGAAGAUGUAUUCUUCUCAUAAGAUAUAGUCGGACCUCUCCUUAAUGGGAGCUAGCGGAUGAAGUGAUGCAACACUGGAGCCGCUGGGAACUAAUUUGUAUGCGAAAGUAUAUUGAUUAGUUUUGGAGUACUCGUGGUCG
In short: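 The eight P1ex-region nucleotides of an intron in the knt kanamycin-resistance gene on pET-22b(+) were all randomised and the library put into E. coli BL21(DE3). Six replicate transformations were grown overnight at 37°C or 30°C on LB agar with or without 25 μg/mL kanamycin, together with 100 μg/mL carbenicillin, 50 μM IPTG and 0.2% rhamnose. Colonies were pooled and amplicon-sequenced on an Illumina HiSeq 2500. Fitness from DiMSum is the error-weighted combination of wild-type-normalised replicate fold changes, kanamycin over none.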

Sequence	self-splicing fitness (ln) (30 °C)	self-splicing fitness (ln) (37 °C)
UUAAAGCAAUAUUACGGAGC	-3.99 ± 0.28	-0.662 ± 0.23
UUAAAGCAAUAUUACGGAUC	-1.78 ± 0.24	-0.2 ± 0.21
UUAAAGCAAUAUUACGGGAA	-0.821 ± 0.088	-0.351 ± 0.12
UUAAAGCAAUAUUACGGGAU	-2.8 ± 0.14	-0.86 ± 0.12
UUAAAGCAAUAUUACGGUAA	-0.33 ± 0.076	0.503 ± 0.1
UUAAAGCAAUAUUACGGUUA	0.31 ± 0.069	-0.0607 ± 0.072
UUAAAGCAAUAUUACGUAAA	-1.16 ± 0.12	-0.0909 ± 0.12
UUAAAGCAAUAUUACGUAGA	-1.55 ± 0.099	-0.654 ± 0.12
UUAAAGCAAUAUUACGUAUG	-0.495 ± 0.068	-0.0669 ± 0.097
UUAAAGCAAUAUUACGUAUU	-3.28 ± 0.15	-2.75 ± 0.2
UUAAAGCAAUAUUACGUGAA	-1.8 ± 0.13	-0.0245 ± 0.13
UUAAAGCAAUAUUACGUGCG	-0.23 ± 0.058	-0.242 ± 0.085
UUAAAGCAAUAUUACGUGGC	-3.08 ± 0.15	-2.98 ± 0.3
UUAAAGCAAUAUUACGUUUA	-0.747 ± 0.068	-0.409 ± 0.09
UUACAGCAAUAUUACGAAAG	-2.87 ± 0.29	-2.73 ± 0.33
UUACAGCAAUAUUACGACUC	-2.69 ± 0.24	-1.28 ± 0.2
UUACAGCAAUAUUACGCAAG	-1.73 ± 0.1	-0.345 ± 0.12
UUACAGCAAUAUUACGCGAG	-1.02 ± 0.085	-0.72 ± 0.08
UUACAGCAAUAUUACGCGAU	-2.28 ± 0.18	-1.75 ± 0.16
UUACAGCAAUAUUACGCGGA	-1.6 ± 0.12	-0.823 ± 0.095
UUACAGCAAUAUUACGCUUA	-1.38 ± 0.11	-0.114 ± 0.1

Sequence	self-splicing fitness (ln) (30 °C)	self-splicing fitness (ln) (37 °C)
UUACAGCAAUAUUACGCUUC	-3.13 ± 0.37	-2.99 ± 0.47
UUACAGCAAUAUUACGGACU	-2.05 ± 0.17	-1.9 ± 0.17
UUACAGCAAUAUUACGGCUA	-0.676 ± 0.091	0.443 ± 0.11
UUACAGCAAUAUUACGGGAU	-3.85 ± 0.21	-2.69 ± 0.13
UUACAGCAAUAUUACGGGCU	-3.86 ± 0.24	-2.32 ± 0.18
UUACAGCAAUAUUACGGUAU	-1.96 ± 0.097	-0.871 ± 0.1
UUACAGCAAUAUUACGUAAC	-3.72 ± 0.18	-3.25 ± 0.24
UUACAGCAAUAUUACGUCAU	-3.77 ± 0.2	-1.18 ± 0.12
UUACAGCAAUAUUACGUCGG	-1.24 ± 0.08	-0.125 ± 0.087
UUACAGCAAUAUUACGUGAC	-3.7 ± 0.21	-1.81 ± 0.16
UUACAGCAAUAUUACGUUAA	-1.12 ± 0.11	-0.847 ± 0.085
UUAGAGCAAUAUUACGAAAA	-1.66 ± 0.13	-0.776 ± 0.15
UUAGAGCAAUAUUACGAAGA	-1.27 ± 0.13	-0.451 ± 0.23
UUAGAGCAAUAUUACGAAGG	-1.72 ± 0.14	-1.9 ± 0.23
UUAGAGCAAUAUUACGACAA	0.166 ± 0.062	0.493 ± 0.09
UUAGAGCAAUAUUACGCAUA	-3.06 ± 0.27	-0.817 ± 0.3
UUAGAGCAAUAUUACGGGUU	-4.25 ± 0.42	-3.21 ± 0.35
UUAGAGCAAUAUUACGGUUA	-0.618 ± 0.15	-1.17 ± 0.23
UUAGAGCAAUAUUACGUAGG	-2.7 ± 0.14	-1.5 ± 0.15
UUAGAGCAAUAUUACGUCAA	-1.59 ± 0.16	-1.15 ± 0.22
UUAGAGCAAUAUUACGUCAG	-1.02 ± 0.15	-0.83 ± 0.17
